Experimental findings from patent US20050191342A1 are described below.

The assay concerns the target CD20 on Daudi target cells (human) (UniProt P11836). Nature of the assay: cell-based or functional assay.
Sequence of UniProt P11836 (P11836 whole entry): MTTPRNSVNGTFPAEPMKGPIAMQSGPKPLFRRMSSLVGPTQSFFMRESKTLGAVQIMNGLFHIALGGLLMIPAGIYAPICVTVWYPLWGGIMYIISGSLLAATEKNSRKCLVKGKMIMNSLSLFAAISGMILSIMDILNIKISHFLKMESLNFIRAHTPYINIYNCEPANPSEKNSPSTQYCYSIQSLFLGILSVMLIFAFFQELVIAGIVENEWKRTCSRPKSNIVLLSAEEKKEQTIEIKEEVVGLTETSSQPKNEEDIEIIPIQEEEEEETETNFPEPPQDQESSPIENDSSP

For the substance Rituxan™ (antibody), the ADCC, Cr release from Daudi target cells lay in the range of 10 to 15%.
